We go through two molecules from US20240141039A1 (AGENUS, published 2024).

The target in assay [1] is T1, full-length isoform 2 ECD of human CD96 with a C89S mutation (His-tagged) (human, UniProt P40200 22-519).
T1 construct: also called His-tagged isoform 2 of human CD96 with a C89S mutation; human CD96 extracellular domain isoform 2 C89S
T1 sequence: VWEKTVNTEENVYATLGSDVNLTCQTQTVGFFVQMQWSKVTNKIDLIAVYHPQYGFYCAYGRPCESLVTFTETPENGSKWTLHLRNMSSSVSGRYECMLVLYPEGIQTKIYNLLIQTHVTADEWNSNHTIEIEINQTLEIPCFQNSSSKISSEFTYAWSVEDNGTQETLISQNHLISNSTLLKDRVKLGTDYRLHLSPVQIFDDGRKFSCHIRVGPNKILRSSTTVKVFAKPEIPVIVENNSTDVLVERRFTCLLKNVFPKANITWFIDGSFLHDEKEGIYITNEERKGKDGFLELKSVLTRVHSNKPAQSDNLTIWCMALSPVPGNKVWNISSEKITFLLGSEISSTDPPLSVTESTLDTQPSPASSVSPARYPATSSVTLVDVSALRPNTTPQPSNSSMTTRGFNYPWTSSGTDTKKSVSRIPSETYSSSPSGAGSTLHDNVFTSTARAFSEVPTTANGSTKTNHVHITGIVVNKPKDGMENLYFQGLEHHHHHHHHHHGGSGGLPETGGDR
Briefly: SPR Biacore T200, Protein A capture, 1:1 model, experiment #1. The procedure:
(§1) Briefly, surface plasmon resonance experiments were performed using a Biacore T200 instrument, and the association rate (kₐ), dissociation rate (kd), and dissociation constant (KD) were calculated from each experiment using a 1:1 binding model with Biacore T200 Evaluation Software.
(§2) Multispecific molecules were captured using a 30-sec injection at a flow rate of 10 μl/min to reach about 350 resonance units (RUs). […] The sensor chip was regenerated between cycles with two 30-sec injections of 10 mM glycine, pH 1.5. Sensorgrams were evaluated and fit to a simple Langmuir 1:1 interaction model using the global data analysis option of BIAevaluation 3.0 software. Data quality was verified by visually inspecting deviations and curve fitting, and by evaluating the parameters of Rₘₐₓ, Chi2, and Tc.
A general note: Surface plasmon resonance follows binding to a sensor surface in real time, without labels.

Assay [2] has as its target T2, full-length ECD of cynomolgus monkey TIGIT (His-tagged) (cynomolgus monkey).
T2 construct: also called His-tagged cynomolgus monkey TIGIT; cyno TIGIT extracellular domain
The assay is described as above. The procedure: as §1, §2

In assay [3] the target is T1, full-length isoform 2 ECD of human CD96 …. As to the kind of experiment: SPR Biacore T200, Protein A capture, 1:1 model, experiment #2. The procedure:
as §1, §2

Assay [4] addresses T2, full-length ECD of cynomolgus monkey …. Described as above. The procedure: as §1, §2
Assay [5] deals with T3, wild type full-length human CD96 isoform 2 expressed on CHO cells (human, UniProt P40200-2 22-569).
T3 construct: whole, on cells; also called human CD96-CHO (isoform 2); human CD96 (iso2) CHO cells
T3 sequence (looked up): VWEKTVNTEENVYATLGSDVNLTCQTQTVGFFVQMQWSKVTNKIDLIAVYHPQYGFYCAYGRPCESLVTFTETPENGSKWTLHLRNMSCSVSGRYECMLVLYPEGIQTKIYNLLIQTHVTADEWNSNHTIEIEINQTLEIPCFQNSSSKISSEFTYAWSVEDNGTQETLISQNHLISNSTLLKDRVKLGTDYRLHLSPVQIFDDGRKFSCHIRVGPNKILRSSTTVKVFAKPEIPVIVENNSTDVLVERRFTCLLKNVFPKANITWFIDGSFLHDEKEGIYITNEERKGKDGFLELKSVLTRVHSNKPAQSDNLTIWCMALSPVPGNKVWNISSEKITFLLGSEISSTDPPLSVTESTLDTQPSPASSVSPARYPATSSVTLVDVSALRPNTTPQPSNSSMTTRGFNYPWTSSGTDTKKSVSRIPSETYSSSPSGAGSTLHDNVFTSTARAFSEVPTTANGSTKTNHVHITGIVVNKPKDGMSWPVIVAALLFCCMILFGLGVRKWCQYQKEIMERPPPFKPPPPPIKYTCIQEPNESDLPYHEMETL
Briefly: flow cytometry on CHO cells expressing human CD96 isoform 2, PE anti-human IgG Fc detection. The procedure:
For the antibody binding assay, a frozen aliquot of human CD96-CHO cells (isoform 1 or isoform 2) was thawed at 37° C. and then transferred to a tube containing DPBS supplemented with 0.5% Bovine Serum Albumin and 0.05% Sodium Azide (FACS Buffer). Cells were centrifuged at 300 g for five minutes. The supernatant was discarded, and cells resuspended in FACS buffer were seeded in a 96-well U-bottom tissue culture plate at a density of 2×10⁵ cells per well in 50 μL. In a separate microplate, a 2× concentrated intermediate stock of each antibody was prepared. Antibodies were serially diluted 1-to-3 in FACS buffer. A total of 11 working dilutions ranging from 60 μg/mL to 0.001 μg/mL were prepared. Fifty microlitres of each dilution were then transferred to the microplate containing human CD96-CHO cells. The cells were then incubated for 45 minutes at 4° C. […] After a 30-minute incubation on ice, the cells were washed twice with cold FACS Buffer, and the cells were analyzed by flow cytometry (BD LSR Fortessa Flow Cytometer). The data were analyzed using the FlowJo software by sequentially gating the FSC-A vs. SSC-A, and SSC-H vs. SSC-A. Mean fluorescence intensity (MFI) values for PE were calculated, and the data were plotted by GraphPad Prism software.
For orientation: A flow cytometer gives signals particle by particle.

B1: anti-TIGIT×CD96 multispecific molecule BA123 (bispecific antibody, human IgG1, kappa, lambda)
heavy 1: QVQLVQSGAEVKKPGASVKVSCKASGYTFTSYGISWVRQAPGQGLEWMGWISAYNANTNYAQKLQGRVTMTTDTSTSTAYMELRSLRSDDTAVYYCARSAGVLGGMDVWGRGTLVTVSSASTKGPSVFPLAPSSKSTSGGTAALGCLVKDYFPEPVTVSWNSGALTSGVHTFPAVLQSSGLYSLSSVVTVPSSSLGTQTYICNVNHKPSNTKVDKRVEPKSCDKTHTCPPCPAPELLGGPDVFLFPPKPKDTLMISRTPEVTCVVVDVSHEDPEVKFNWYVDGVEVHNAKTKPREEQYNSTYRVVSVLTVLHQDWLNGKEYKCKVSNKALPAPIEKTISKAKGQPREPQVYTLPPSREEMTKNQVSLSCAVKGFYPSDIAVEWESNGQPENNYKTTPPVLDSDGSFFLVSKLTVDKSRWQQGNVFSCSVMHEALHNHYTQKSLSLSPG
light 1: not shown
heavy 2: EVQLVQSGAEVKKPGSSVKVSCKASGYTFASYGISWVRQAPGQGLEWMGGITPFFNRVDVAEKFQGRVTITADKSTSTAYIELSSLRSEDTAVYYCARDLRRGGVGDAFDIWGRGTLVTVSSASTKGPSVFPLAPSSKSTSGGTAALGCLVKDYFPEPVTVSWNSGALTSGVHTFPAVLQSSGLYSLSSVVTVPSSSLGTQTYICNVNHKPSNTKVDKRVEPKSCDKTHTCPPCPAPELLGGPDVFLFPPKPKDTLMISRTPEVTCVVVDVSHEDPEVKFNWYVDGVEVHNAKTKPREEQYNSTYRVVSVLTVLHQDWLNGKEYKCKVSNKALPLPEEKTISKAKGQPREPQVYTLPPSREEMTKNQVSLWCLVKGFYPSDIAVEWESNGQPENNYKTTPPVLDSDGSFFLYSKLTVDKSRWQQGNVFSCSVMHEALHNHYTQKSLSLSPG
light 2: QSALTQPRSVSGSPGQSVTISCTGTSPDVGSHAYRSWYQQHPGKAPKLMIYEVSYRPSGVSNRFSGSKSGNTASLTISGLQAEDEADYYCSSYPPSSATVFGAGTKLTVLGQPKAAPSVTLFPPSSEELQANKATLVCLISDFYPGAVTVAWKADSSPVKAGVETTTPSKQSNNKYAASSYLSLTPEQWKSHRSYSCQVTHEGSTVEKTVAPTEC
notes: copies: 1 + 1 + 1 + 1
Consider B1, for which the Kd (in general, the free concentration of one partner at which half of the binding sites on the other are occupied at equilibrium, for simple one-to-one binding) was found to be 79 nM in assay [1], 4.78 nM in assay [2], 85 nM in assay [3] and 4.27 nM in assay [4]. For the same molecule, the koff (commonly the rate constant with which the complex falls apart) in assay [1] turned out to be 0.00125 s⁻¹; in assay [2], 0.00132 s⁻¹; in assay [3], 0.00083 s⁻¹; in assay [4] it was 0.00135 s⁻¹. The kon – broadly, a measure of how fast the partners come together – is 15800 M⁻¹ s⁻¹ in assay [1], 277000 M⁻¹ s⁻¹ in assay [2], 9760 M⁻¹ s⁻¹ in assay [3] and 315000 M⁻¹ s⁻¹ in assay [4]. The EC50 (read off the curve) (as a rule, the concentration that produces a half-maximal response) in assay [5] was roughly 0.2 µg/mL.

B2: anti-TIGIT×CD96 multispecific molecule BA127 (bispecific antibody, human IgG1, kappa, lambda)
heavy 1: QVQLVQSGAEVKKPGASVKVSCKASGYTFTTYALHWVRQAPGQRLEWMGWINTGSGDTKYSQKFQGRVTITRDTSASTAYMELSSLRSEDTAVYYCARSLGVYYGMDVWGQGTLVTVSSASTKGPSVFPLAPSSKSTSGGTAALGCLVKDYFPEPVTVSWNSGALTSGVHTFPAVLQSSGLYSLSSVVTVPSSSLGTQTYICNVNHKPSNTKVDKRVEPKSCDKTHTCPPCPAPELLGGPDVFLFPPKPKDTLMISRTPEVTCVVVDVSHEDPEVKFNWYVDGVEVHNAKTKPREEQYNSTYRVVSVLTVLHQDWLNGKEYKCKVSNKALPAPIEKTISKAKGQPREPQVYTLPPSREEMTKNQVSLSCAVKGFYPSDIAVEWESNGQPENNYKTTPPVLDSDGSFFLVSKLTVDKSRWQQGNVFSCSVMHEALHNHYTQKSLSLSPG
light 1: not shown
heavy 2: EVQLVQSGAEVKKPGSSVKVSCKASGYTFASYGISWVRQAPGQGLEWMGGITPFFNRVDVAEKFQGRVTITADKSTSTAYIELSSLRSEDTAVYYCARDLRRGGVGDAFDIWGRGTLVTVSSASTKGPSVFPLAPSSKSTSGGTAALGCLVKDYFPEPVTVSWNSGALTSGVHTFPAVLQSSGLYSLSSVVTVPSSSLGTQTYICNVNHKPSNTKVDKRVEPKSCDKTHTCPPCPAPELLGGPDVFLFPPKPKDTLMISRTPEVTCVVVDVSHEDPEVKFNWYVDGVEVHNAKTKPREEQYNSTYRVVSVLTVLHQDWLNGKEYKCKVSNKALPLPEEKTISKAKGQPREPQVYTLPPSREEMTKNQVSLWCLVKGFYPSDIAVEWESNGQPENNYKTTPPVLDSDGSFFLYSKLTVDKSRWQQGNVFSCSVMHEALHNHYTQKSLSLSPG
light 2: QSALTQPRSVSGSPGQSVTISCTGTSPDVGSHAYRSWYQQHPGKAPKLMIYEVSYRPSGVSNRFSGSKSGNTASLTISGLQAEDEADYYCSSYPPSSATVFGAGTKLTVLGQPKAAPSVTLFPPSSEELQANKATLVCLISDFYPGAVTVAWKADSSPVKAGVETTTPSKQSNNKYAASSYLSLTPEQWKSHRSYSCQVTHEGSTVEKTVAPTEC
notes: Anti-CD96 arm = BA139, anti-TIGIT arm = BA150; copies: 1 + 1 + 1 + 1
Consider B2, for which the Kd in assay [1] worked out at 19.6 nM; in assay [2], 4.29 nM; in assay [3] it was 19.7 nM; in assay [4] it was 3.7 nM. Moreover, the koff in assay [1] is 0.00116 s⁻¹; in assay [2] it was 0.00126 s⁻¹; in assay [3] it was 0.000796 s⁻¹; in assay [4], 0.00129 s⁻¹. Besides, the kon amounted to 59200 M⁻¹ s⁻¹ in assay [1], 294000 M⁻¹ s⁻¹ in assay [2], 40500 M⁻¹ s⁻¹ in assay [3] and 348000 M⁻¹ s⁻¹ in assay [4]. Further, in assay [5], the “EC50 (read off the curve)” value is roughly 0.03 µg/mL.
